The values that follow are results of earlier work, collected in article PMC5274714.

In this data set the target is human serum albumin (Homo sapiens) (UniProt P02768). The experiment in a line: SPR. For orientation: In SPR one partner is held on a chip, and binding of the other changes the refractive index at the surface.

Consider protein G ABD3 (from UniProt P19909), for which the Kd is 4 nM.

In general, Kd refers to a measure of binding affinity in units of concentration.
